The target in assay [1] is HveC(346t) (human) (UniProt Q15223). As to the kind of experiment: SPR (Biacore X), HveC(346t) amine-coupled to the chip, gD in flow, 1:1 Langmuir global fit. In general terms: SPR reads the build-up and loss of mass on a sensor chip optically.
Assay [2] addresses HveC(143t) (human) (UniProt Q15223). As to the kind of experiment: SPR (Biacore X), HveC(143t) amine-coupled to the chip, gD in flow, KD = koff/kon.
For assay [3], the target named is HveC(245t) (human) (UniProt Q15223). As to the kind of experiment: gel filtration, from the size of the complex. In general terms: SEC sorts molecules by how far they enter the pores of the column.
Assay [4] deals with HveC(346t) (human) (UniProt Q15223). As to the kind of experiment: gel filtration, from the size of the complex.
Assay [5] concerns the target HveC(143t) (human) (UniProt Q15223). As to the kind of experiment: gel filtration, from the size of the complex.
Assay [6] has the same target. As to the kind of experiment: SPR (Biacore X), HveC(143t) amine-coupled to the chip, gD in flow, 1:1 Langmuir global fit.
For assay [7] the target is unchanged. As to the kind of experiment: silver-stained PAGE of the complex fraction against standards.
Assay [8] addresses HveC(346t) (human) (UniProt Q15223). As to the kind of experiment: SPR (Biacore X).
Assay [9] has the same target. As to the kind of experiment: silver-stained gel analysis of the complex formed in excess gD(285t).
For assay [10] the target is unchanged. As to the kind of experiment: SPR (Biacore X), HveC(346t) amine-coupled to the chip, gD in flow, KD = koff/kon.
The target of assay [11] is HveA(200t) (human) (UniProt Q92956). As to the kind of experiment: ELISA, HveAt on the plate.
The target of assay [12] is HveC(346t) (human) (UniProt Q15223). As to the kind of experiment: gel filtration.
The target is the same in assay [13]. As to the kind of experiment: silver-stained SDS-PAGE of the complex fraction.
The target is the same in assay [14]. As to the kind of experiment: ELISA, HveCt on the plate. For orientation: ELISA stands for enzyme-linked immunosorbent assay.
Assay [15] shares this target. As to the kind of experiment: gel filtration at various molar ratios.
For assay [16], the target named is HveA(200t) (human) (UniProt Q92956). As to the kind of experiment: ELISA, apparent affinity from half-maximal binding, HveAt on the plate.
Assay [17] deals with HveC(346t) (human) (UniProt Q15223). As to the kind of experiment: ELISA, apparent affinity from half-maximal binding, HveCt on the plate.

The record followed here is patent US6641818.

pKd: −log10 of the molar value.

UniProt Q92956, sequence (Q92956 39-202): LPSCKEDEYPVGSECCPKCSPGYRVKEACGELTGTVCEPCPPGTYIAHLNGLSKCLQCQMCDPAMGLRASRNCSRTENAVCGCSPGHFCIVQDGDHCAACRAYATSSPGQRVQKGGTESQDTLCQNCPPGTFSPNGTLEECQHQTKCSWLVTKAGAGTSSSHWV

On to gD(285t) (ligand), for which the koff (as a rule, the first-order rate constant of dissociation) in assay [1] amounted to 0.0073 s⁻¹; in assay [6], 0.013 s⁻¹. Moreover, the on-rate constant (kon) (in general, the second-order rate constant of association) in assay [1] amounted to 190000 M⁻¹ s⁻¹; in assay [6], 370000 M⁻¹ s⁻¹. For the same substance, the pKd (as a rule, the Kd on a negative log10 scale, so that one unit is a factor of ten) is 7.46 in assay [2] and 7.42 in assay [10]. Moreover, the stoichiometry (gD:HveC) worked out at 1 gD per HveC in assay [3], 2 gD per HveC in assay [4] and 1 gD per HveC in assay [5]. Also, in assay [7], the ratio in the complex (HveC(143t) per gD(285t)) was 1. In [8], this substance came in with a fold increase in affinity over gD(306t) of over 80 fold. For the same substance, in assay [9], the ratio in the complex was 2 gD per HveC.
Turning to gD-1(A290-299t) (ligand), the fold increase in binding compared to wild type gD(306t) in assay [11] and in [14] was 100 fold each time. Besides, the stoichiometry (gD:HveC) in [12] stood at 2 gD per HveC. The gD:HveCt ratio in the complex in [13] came out at 1.6 gD per HveCt. In addition, the stoichiometry (gD:HveCt) in [15] came out at 2 gD per HveCt.
gD(306t)rid1 (ligand): the dissociation rate constant (koff) in assay [1] was determined as 0.0047 s⁻¹; in assay [6], 0.008 s⁻¹. Besides, the association rate constant (kon) is 27000 M⁻¹ s⁻¹ in [1] and 39000 M⁻¹ s⁻¹ in assay [6]. The negative logarithm of the Kd (pKd) in assay [2] is 6.70; in assay [10], 6.77. For the same substance, in [8], the fold increase in affinity compared to gD(306t) came out at 20 fold.
As for gD-1(306t) KOS (ligand), the dissociation rate constant (koff) in assay [1] is 0.007 s⁻¹; in [6] it was 0.011 s⁻¹. The kon turned out to be 2200 M⁻¹ s⁻¹ in assay [1] and 9000 M⁻¹ s⁻¹ in assay [6]. Further, the pKd in assay [2] is 5.92; in assay [16] it was 6.52; in [17], 6.00; in [10] it was 5.49. The substance further came in with a gD concentration at saturation in assay [11] of 2 to 3 µM. This substance had a gD concentration at saturation (µM (printed RM)) in [14] of 10 to 20.
